Changes are numbered by the printed parent chain. Names may count otherwise.
T1: cynomolgus SIRP-α D1 domain (cyno1) (cynomolgus monkey, UniProt Q5TFQ8 30-148 (human entry), limits assumed)
T1 chain: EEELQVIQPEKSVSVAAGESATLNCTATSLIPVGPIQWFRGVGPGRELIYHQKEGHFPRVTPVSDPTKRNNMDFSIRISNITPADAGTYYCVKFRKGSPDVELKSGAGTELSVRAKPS

T2: high affinity SIRP-α D1 variant CV1-3
T2 chain: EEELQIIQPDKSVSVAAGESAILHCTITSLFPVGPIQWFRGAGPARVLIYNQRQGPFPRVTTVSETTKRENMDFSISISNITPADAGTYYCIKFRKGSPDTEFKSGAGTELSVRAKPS

T3: cynomolgus SIRP-α D1 domain (cyno2) (cynomolgus monkey, UniProt Q5TFQ8 30-148 (human entry), limits assumed)
T3 chain: T1 chain with E19D, A27V, T28S, V42A, H51N, Q52L, P62A

T4: C57BL/6 mouse SIRP-α D1 domain (mouse (C57BL/6 strain), UniProt P97797 32-148)
T4 sequence: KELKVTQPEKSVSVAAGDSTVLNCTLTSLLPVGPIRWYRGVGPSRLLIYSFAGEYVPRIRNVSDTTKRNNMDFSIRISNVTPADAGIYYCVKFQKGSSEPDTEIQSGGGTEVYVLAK

T5: NOD mouse SIRP-α D1 domain (mouse (NOD strain))
T5 chain: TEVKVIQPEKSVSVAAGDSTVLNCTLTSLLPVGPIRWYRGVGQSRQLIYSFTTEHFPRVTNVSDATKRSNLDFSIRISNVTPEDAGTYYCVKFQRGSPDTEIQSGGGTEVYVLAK

T6: mouse 129 SIRP-α D1 domain (mouse (129 strain), UniProt P97797 32-150)
T6 construct: also called m129
T6 chain: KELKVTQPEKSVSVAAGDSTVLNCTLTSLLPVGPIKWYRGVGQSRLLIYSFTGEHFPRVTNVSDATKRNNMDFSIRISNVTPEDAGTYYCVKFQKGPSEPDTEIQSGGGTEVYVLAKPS

B1: S191 (scFv, V domains shown)
VH: DVQLVESGGGVVRPGESLRLSCAASGFSFSSYAMNWVRQAPGEGLEWVSRINSGGGGTDYAESVKGRFTISRDNSENTLYLQMNSLRAEDTAVYYCAKQYDWNGFFDYWGLGALVTVSS
VL: ETVLTQSPATLSVSPGERATLSCRASQTVGSKLAWHQQKPGQAPRLLIYDATNRATGIPDRFSGSGSGTDFTLTISGLQTEDSAVYYCQQYYYWPPYRFGGGTKVEIK
notes: also called clone 191
B2: S198 (scFv, V domains shown)
VH: B1 VH with Y32H
VL: B1 VL with G77S
B3: S132 (scFv, V domains shown)
VH: B1 VH with S30R, E62D, E76K, G104S
VL: B1 VL with T52S, G77S, L78P
B4: S173 (scFv, V domains shown)
VH: DVQLVESGGGVVRPGESLRLSCAASGFAFSDHDMSWVRQGPGEGLEWVAGISLRGGVTWYADSVKGRFTISRDNSKNTLYLRLFSLRTEDTAIYYCARESWNTFFDYWGLGTLVTVSS
VL: EIVLTQSPGTLSLSPGETATLSCRASQNVRSNLAWYQQKPGQAPRLLIYDASSRATGIPDRFSGSGSGTDFTLTISSLQSEDFAVYYCQQYGNGPPLTFGGGTKVEIK
B5: S174 (scFv, V domains shown)
VH: B4 VH with A28T
VL: B4 VL
B6: S209 (scFv, V domains shown)
VH: DVQLVESGGAVVRPGESLRLSCKASGFTFTNFAMSWVRQAPGEGLEWVSGISGSDDTTYYADSVKGRFTISRDNSESTLYLQMNSLRAEDTAVYYCVKDSTVSWNTFFDYWGLGTLVTVSS
VL: ALTQPASVSANLGGTVKITCSGGYGSDDGSSSYYGWYQQKSPGSAPVILIYWDDKRPSDIPSRFSGSTSGSTTTLTITGVQAEDEAVYFCGTYDTSSGAIFGAGTTLTVL
B7: 135 wt/wt_M34V (antibody, human IgG1, V domains shown)
VH: DVQLVESGGGVVRPGESLRLSCAASGFSFSIYAVSWVRQAPGEGLEWVSTIGADDTYYADSVKGRFTISRDNSKNTLYLQMNSLRAEDTAVYYCAKDSTVGWSGDFFDYWGLGTLVTVSS
VL: EIVLTQSPATLSVSPGERVTFSCRASQNVRSDIAWYQQKPGQAPRLLIYAASSRDTGIPDRFSGSGSGTDFTLTISSLQSEDFGVYYCQQYYDWPPFTFGGGTKVEIK
notes: human IgG1 with L234A, L235A, G237A, N297A
B8: 135 wt/wt_M34L (antibody, human IgG1, V domains shown)
VH: B7 VH with V34L
VL: B7 VL
notes: as for B7

How the values were obtained:
[1] = molecular target: T7, human SIRP-α v2 D1 domain (human); experiment: SPR, Langmuir fit
T7 construct: also called human v2
How it was run: (§1)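 Pre-filtered culture media supplied the scFv-Fc antibody clones, which were captured by anti-human IgG Fc amine-coupled (about 4000 RU) to a GLC chip on a ProteOn XPR36. SIRP analytes were flowed in PBS pH 7.4 with 0.01% Tween-20 at 25° C. Interspot and buffer-blank responses were subtracted from the data, which were then fitted to a 1:1 Langmuir model. Dissociation rate constants (koff) were derived from this fitting.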
T7 sequence (chain, as listed by the source limits assumed): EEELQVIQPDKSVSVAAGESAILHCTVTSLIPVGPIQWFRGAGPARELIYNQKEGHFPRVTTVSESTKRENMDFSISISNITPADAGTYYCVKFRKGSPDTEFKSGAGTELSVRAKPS

[2] = molecular target: T1, cynomolgus SIRP-α D1 domain (cyno1); experiment: SPR, Langmuir fit
How it was run: as §1

[3] = molecular target: T2, high affinity SIRP-α D1 variant CV1-3; experiment: SPR, Langmuir fit
How it was run: as §1

[4] = molecular target: T3, cynomolgus SIRP-α D1 domain (cyno2); experiment: SPR, Langmuir fit
How it was run: as §1

[5] = molecular target: T8, human SIRP-α v1 D1 domain (human, UniProt P78324 31-149); experiment: SPR, Langmuir fit
T8 construct: also called human v1
How it was run: as §1
T8 sequence (P78324 31-149 limits assumed): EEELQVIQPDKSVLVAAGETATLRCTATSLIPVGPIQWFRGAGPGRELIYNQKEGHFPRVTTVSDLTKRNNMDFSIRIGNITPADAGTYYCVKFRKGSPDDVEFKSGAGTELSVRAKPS

[6] = molecular target: T9, human SIRPβ isoform 1 (human, UniProt O00241 30-148); experiment: SPR, Langmuir fit
T9 construct: also called SIRPb; sirpb1
T9 sequence (O00241 30-148 limits assumed): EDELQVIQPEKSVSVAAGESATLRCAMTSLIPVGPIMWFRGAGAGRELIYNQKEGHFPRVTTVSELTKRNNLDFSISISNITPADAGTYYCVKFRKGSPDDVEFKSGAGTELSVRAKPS
How it was run: as §1

[7] = molecular target: T4, C57BL/6 mouse SIRP-α D1 domain; experiment: SPR
How it was run: as §1

[8] = molecular target: T5, NOD mouse SIRP-α D1 domain; experiment: SPR
How it was run: as §1

[9] = molecular target: T6, mouse 129 SIRP-α D1 domain; experiment: SPR
How it was run: as §1

[10] = molecular target: T10, human SIRPγ isoform 1 (human, UniProt Q9P1W8 29-147); experiment: SPR, Langmuir fit
T10 construct: also called SIRPg; sirpg
T10 sequence (Q9P1W8 29-147 limits assumed): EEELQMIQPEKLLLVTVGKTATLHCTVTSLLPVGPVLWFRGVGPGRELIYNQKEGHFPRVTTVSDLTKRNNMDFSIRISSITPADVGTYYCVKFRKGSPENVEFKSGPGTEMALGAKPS
How it was run: as §1

[11] = molecular target: T10, human SIRPγ isoform 1; experiment: SPR
How it was run: as §1

[12] = molecular target: T1, cynomolgus SIRP-α D1 domain (cyno1); experiment: SPR
How it was run: as §1

[13] = molecular target: T9, human SIRPβ isoform 1; experiment: SPR
How it was run: as §1

[14] = molecular target: T11, human SIRP-α v2 D1 domain (human); experiment: SPR, antibody immobilised on GLC chip
T11 construct: biotinylated and captured on avidin in the ELISA; also called human v2
How it was run: (§2)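 Protein A-purified antibodies were diluted to 80 nM in 10 mM sodium acetate pH 4.5 and amine-coupled (~1000 RU) to a GLC chip of a ProteOn XPR36 biosensor. SIRP analytes were injected one-shot at 100, 33, 11, 3.7, 1.2 and 0 nM in PBS pH 7.4 with 0.01% Tween-20 at 25° C. Association ran 90 s at 100 μL/min and dissociation 1200 s. KD came from double-referenced data fitted globally to a Langmuir model, as kd/ka.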

[15] = molecular target: T12, human SIRP-α v1 D1 domain (human, UniProt P78324 31-149); experiment: SPR, antibody immobilised on GLC chip
T12 construct: biotinylated and captured on avidin in the ELISA; also called human v1
How it was run: as §2
T12 sequence (P78324 31-149 limits assumed): as the sequence (P78324 31-149 limits assumed) above

Binder	koff [1] [s⁻¹]	koff [2] [s⁻¹]	koff [3] [s⁻¹]	koff [4] [s⁻¹]	koff [5] [s⁻¹]	koff [6] [s⁻¹]	binding result [7]	binding result [8]	binding result [9]	koff [10] [s⁻¹]	binding result [11]	binding result [12]	binding result [13]	binding result [14]	binding result [15]
B1	3.53e-05	5.54e-05	0.000295	1.38e-05	6.67e-05	1.01e-05	no binding (tested: Koff > 5 × 10^3 (legend))	no binding (tested: Koff > 5 × 10^3 (legend))	no binding (tested: Koff > 5 × 10^3 (legend))	–	–	–	–	–	–
B2	4.95e-05	8.34e-05	0.000787	7.73e-05	3.67e-05	4.72e-05	no binding (tested: Koff > 5 × 10^3 (legend))	no binding (tested: Koff > 5 × 10^3 (legend))	no binding (tested: Koff > 5 × 10^3 (legend))	–	–	–	–	–	–
B3	2.06e-05	4.28e-05	7.95e-05	7.12e-05	3.34e-05	1.01e-05	no binding (tested: Koff > 5 × 10^3 (legend))	no binding (tested: Koff > 5 × 10^3 (legend))	no binding (tested: Koff > 5 × 10^3 (legend))	1.05e-05	–	–	–	–	–
B4	0.00504	–	0.00137	–	0.00112	–	no binding (tested: Koff > 5 × 10^3 (legend))	–	no binding (tested: Koff > 5 × 10^3 (legend))	–	no binding (tested: Koff > 5 × 10^3 (legend))	no binding (tested: Koff > 5 × 10^3 (legend))	no binding (tested: Koff > 5 × 10^3 (legend))	–	–
B5	0.00399	–	0.00189	–	0.00143	–	no binding (tested: Koff > 5 × 10^3 (legend))	–	no binding (tested: Koff > 5 × 10^3 (legend))	–	no binding (tested: Koff > 5 × 10^3 (legend))	no binding (tested: Koff > 5 × 10^3 (legend))	no binding (tested: Koff > 5 × 10^3 (legend))	–	–
B6	0.00401	–	0.00245	–	0.000659	6.54e-05	no binding (tested: Koff > 5 × 10^3 (legend))	–	–	–	no binding (tested: Koff > 5 × 10^3 (legend))	no binding (tested: Koff > 5 × 10^3 (legend))	–	–	–
B7	–	–	–	–	–	–	–	–	–	–	–	–	–	binds	binds
B8	–	–	–	–	–	–	–	–	–	–	–	–	–	binds	binds

— patent publication US20210363269A1 (ALX ONCOLOGY, published 2021)
